Consider 16 sequences from the nanobody polyreactivity screen of Harvey et al. (2022).

The data set is described as follows: yeast display, Sf9 membrane polyspecificity reagent, FACS + sequencing; frameworks hold sequencing errors. In short, it runs like this: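 Nanobodies from a synthetic yeast display library (Saccharomyces cerevisiae BJ5465), induced 36–48 hours with galactose, were stained 1 hour at 4 °C with 10% biotinylated, detergent-solubilized Sf9 membrane reagent, enriched on streptavidin microbeads, then FACS-sorted. Anti-HA (expression) and streptavidin (reagent binding) fluorescence set low and high (top ~1%) gates. Polyreactivity labels come from the gate of origin. Genes were colony-PCR amplified, MiSeq 2 × 250 sequenced and filtered by CDR length.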
Take “QVQLVESGGGLVQAGGSLRLSCAASGFIFASNAMGWYRPAPGKERELVAAISTNGGSTNYADSVKGRFTISRDNAKKTVYLQMNSLKPEDTAVYYCNTDFPTQYGTRIGDDYWGQGTQVTVSS”: the “polyreactivity (PSR sort gate)” value is given as “low polyreactivity”.
Take “QVQLVESGGGLVQAGGSLRLSCAASGFIFATNNMGWYRQAPGKERELVAASSTYYADSVKGRFTISRDNAKNTVYLQMNSLKPEDTAVYYCNALYRYLYRSGDYWGLGTQVTVSS”: the “polyreactivity (PSR sort gate)” value is listed as “low polyreactivity”.
“QVQLVESGGGLVQAGGSLRLSCAASGFIFAVNAMGWYRPAPGKERELVAAISRSGGTTYYADSVKGRFTISRDNAKNTVYLQMNSLKPEDTAVYYCARSSGLRSWRSSDYWGQGTQVTVSS”: the “polyreactivity (PSR sort gate)” value was “high polyreactivity”.
The entry for “QVQLVESGGGLVQAGGSLRLSCAASGFIFAYNAMGWYRQAPGKEWELVAAISWSGGSTYYADSVKGRFTISRDNAKNTVYLQMNSLKPEDTAVYYCNKYLRYPFKRYGYWGQGTQVTVSS” is “high polyreactivity”; for “QVQLVESGGGLVQAGGSLRLSCAASGFIFAYYAMGRYRQAPGKEREFVAVINWSGGITYYADSVKGRFTISRDNAKNTVYLQMNSLKPEDTAVYYCAADELAGYDYWGQGTQVTVSS” it is “low polyreactivity”; for “QVQLVESGGGLVQAGGSLRLSCAASGFIFAYYAMGRYRQAPGKERELVAAITIDGSTYYADSVKGRFTIHDNAKNTVYLQMNRLKPEDTAVYYCNAGRWVYWQNNFGDYGYWGQGTQVTVSS” it is “low polyreactivity”.
The entry for “QVQLVESGGGLVQAGGSLRLSCAASGFIFAYYAMGWYRQAPGKERELVAAISQSGTSTYYADSVKGRFTISRDNAKNTVYLQMNSLKPEDTAVYYCNVVPTGVHIFDYWGQGTQVTVSS” is “low polyreactivity”; for “QVQLVESGGGLVQAGGSLRLSCAASGFIFAYYAMGWYRQAPGKERELVAAISSRAGRTYYADSVKGRFTISRDNAKNTVYLQMNSLKPEYTAVYYWAAPTSSSGRYHRYYYWGQGTQVTVSS” it is “high polyreactivity”; for “QVQLVESGGGLVQAGGSLRLSCAASGFIFAYYAMGWYRQAPGKERELVAAISSSGGSTYYADSVKGRFTISRDNAKNTVYLQMNSLKPEDTAVYFCNRRWVAPYFYSRYYSGQEEGYWGQGTQVTVSS” it is “high polyreactivity”.
The entry for “QVQLVESGGGLVQAGGSLRLSCAASGFIFAYYAMGWYRQAPGKETELVAAITWSGGRTYYADSVKGRFTISRDNSKNTVYLQMNSLKPEDTAVYYCNAVRPSVDYGYWGQGTQVTVSS” is “high polyreactivity”; for “QVQLVESGGGLVQAGGSLRLSCAASGFIFAYYTMGWYRQAPGKEREFVASITYSGGNTYYADSVKGRFTISRDNAKNTVYLQMNSLKPEDTAVYYCATRDGYSISTTGLMDYWGQGTQVTVSS” it is “low polyreactivity”.
On to “QVQLVESGGGLVQAGGSLRLSCAASGFIFDAYAMGWYRQAPGKERELVAAITRGNTYYADSVKGRFTISRDNAKNTVYLQMNSLKPEDTALYYCNADYNYANYPHDYWGQVTQVTVSS”, for which the “polyreactivity (PSR sort gate)” value is reported as “low polyreactivity”.
The entry for “QVQLVESGGGLVQAGGSLRLSCAASGFIFDDNTMGWYRQAPGKERELVAAISYSAGSTYYADSVKGRFTISRDNAKNTVYLQMNSLKPEDTAVYYCAAQHYWVTSYLSSYDYWGQGTQVTVSS” is “low polyreactivity”; for “QVQLVESGGGLVQAGGSLRLSCAASGFIFDHNAMGWYRQAPGKERELVAAISGSGGSTYYADSVKGRFTISRDNAKNTVYLQMNSLKPEDTAVYYCNALKRTRLVRYYYWGQGTQVNVSS” it is “high polyreactivity”.
The entry for “QVQLVESGGGLVQAGGSLRLSCAASGFIFDKNAMGWYRQAPGKERELVAAITSSGGSTYADSVKGRFTISRDNAKNTVYLQMNSLKPEDTAVYYCAARWYRPWYVTDSGDDYWGQGTQVTVSS” is “low polyreactivity”.
The entry for “QVQLVESGGGLVQAGGSLRLSCAASGFIFDLYAMGWYRQAPGKERELVAAISPSGGSTYYADSVKGRFTISRDNAKNTVYLQMNSLKPEDTAVYYCNTGIRWAISKEYDYWGQGTQVTVSS” is “high polyreactivity”.
